Laboratory results as given in PMC4992955, “Pichia pastoris Fep1 is a [2Fe-2S] protein with a Zn finger that displays an unusual oxygen-dependent role in cluster binding”.

T1: MBP-Fep1 (41-192) WT (Pichia pastoris (GS115), UniProt A4VAR6 41-192)
T1 sequence: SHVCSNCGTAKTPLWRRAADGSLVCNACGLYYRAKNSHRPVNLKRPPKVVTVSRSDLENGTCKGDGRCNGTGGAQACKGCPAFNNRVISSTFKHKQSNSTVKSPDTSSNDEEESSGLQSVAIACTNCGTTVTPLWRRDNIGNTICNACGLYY

B1: fetgata2/fetgata1 (FET3 promoter GATA probe) (dsDNA)
DNA 1: GGCGATTGAACTGATAATTTTACTAAATAAGTGGAA
DNA 2: GGATTCCACTTATTTAGTAAAATTATCAGTTCAAT

What was measured:
[1] = target: Flag-Fep1 (1–208) WT (Pichia pastoris); experiment: SEC; analytical gel-filtration on Superdex-75 (10/300) in 25 mM MOPS pH 7, 150 mM NaCl; calibrated with conalbumin, ovalbumin, carbonic anhydrase and RNase A
[2] = target: Flag-Fep1 (1–208) WT (Pichia pastoris); experiment: SAXS; solution SAXS at ESRF beamline BM29, 293 K, three dilutions of each sample; as-purified and after reconstitution of the [2Fe-2S] cluster; molecular weights from ab initio calculation with ATSAS
MBP-Fep1 (41-192) WT = target: T1, MBP-Fep1 (41-192) WT; experiment: EMSA; 5 uM ZnSO4, 5 uM FeCl3; 12.5 mM Hepes pH 7.9, 75 mM NaCl, 4 mM MgCl2, 1 mM EDTA, 10% glycerol, 4 mM Tris-HCl pH 7.9, 0.6 mM DTT, 1 ug poly(dI-dC)2, 5 uM ZnSO4, 5 uM FeCl3; 100-250 ng protein, 1 ng probe, 20 min at 25 C; 6% native gel at 4 C; conditions: protein: recombinant; tags: MBP fusion; label: 32P end-label (alpha-32P); 5' overhangs: 4 nt on S3, 3 nt on S4 as printed; 32 bp duplex

| Molecule | stoichiometry N [1] | stoichiometry N [2] | binding result (MBP-Fep1 (41-192) WT) |
| --- | --- | --- | --- |
| Flag-Fep1 (1–208) WT (domain or fragment) | 2 | 2 |  |
| B1 |  |  | binds |
